Here are results for 1 substance from PMC7592150.

The assay addresses PCSK9 (UniProt Q8NBP7). Put plainly: SPR.
Sequence of UniProt Q8NBP7 (Q8NBP7 31-692): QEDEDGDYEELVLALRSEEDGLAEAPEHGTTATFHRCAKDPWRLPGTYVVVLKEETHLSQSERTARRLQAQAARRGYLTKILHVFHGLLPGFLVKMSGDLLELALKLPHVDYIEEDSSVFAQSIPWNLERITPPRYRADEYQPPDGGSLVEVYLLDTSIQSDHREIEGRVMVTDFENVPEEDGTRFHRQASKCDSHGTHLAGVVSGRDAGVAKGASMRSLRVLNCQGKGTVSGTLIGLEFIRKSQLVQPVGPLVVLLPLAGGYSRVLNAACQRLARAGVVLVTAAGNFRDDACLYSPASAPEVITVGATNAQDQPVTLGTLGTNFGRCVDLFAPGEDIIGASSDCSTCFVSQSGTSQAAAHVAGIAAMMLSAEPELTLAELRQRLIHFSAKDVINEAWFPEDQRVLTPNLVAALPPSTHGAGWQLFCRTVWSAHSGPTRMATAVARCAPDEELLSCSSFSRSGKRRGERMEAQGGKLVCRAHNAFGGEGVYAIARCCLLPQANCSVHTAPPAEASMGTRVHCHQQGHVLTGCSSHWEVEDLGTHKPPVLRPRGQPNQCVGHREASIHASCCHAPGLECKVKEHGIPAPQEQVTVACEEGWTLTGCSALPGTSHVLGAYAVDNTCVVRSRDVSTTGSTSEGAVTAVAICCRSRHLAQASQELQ

Bococizumab (antibody) had a Kd of 0.03 nM. This counts as picomolar.
